Assay results reported in patent US20250129143A1 (TOKYO METROPOLITAN INSTITUTE OF MEDICAL SCIENCE, published 2025).
Blank lines part the entries; values can stand above or below the binder they belong to.

Assays:
[1] = target: T1, biotinylated ubiquitin (human-derived ubiquitin with C-terminal Cys residue and 6xHis tag, biotin on the Cys) (human, UniProt P0CG48 1-76, biotin tag (EZ-Link Maleimide-PEG11-Biotin) on the added C-terminal Cys residue); assay: BLI; biotinylated ubiquitin on streptavidin sensor, Monobody-Nus-His6 as analyte
T1 construct: mature; Construct pET21a-hUb-Cys-His6; also called hUb-Cys-His6; biotin-labeled ubiquitin monomer

[2] = target: T2, K6 (human); assay: immunoprecipitation from HCT-116 cell extract; quantitative mass spectrometry; pie chart [panel B]
T2 construct: quantified through the peptide M[Oxid]QIFVK[di-GlyGly]TLTGK; also called K6 chain; K6-linked ubiquitin chain
Excerpt: (§1) FIG. 7 is a view showing the results of quantitative mass spectrometry analysis of immunoprecipitates. […] The immunoprecipitates subjected to FIG. 5C were electrophoresed, and high molecular weight regions (62 kDa or more) were subjected to quantitative mass spectrometry analysis. A stable isotope-labeled ubiquitin-derived peptide (name: EST) as an internal standard and 8 types of ubiquitin chain-derived peptides (names: K6, K11, K27, K29, K33, K48, K63, and M1) were used, and the quantification values (fmol) were described. Since the EST peptide sequence overlaps with the K63 chain peptide sequence, the total ubiquitin value was calculated by adding the value of the K63 chain-derived peptide to the quantitative value of the EST peptide. The total amount of ubiquitin contained in the ubiquitin monobody immunoprecipitates was confirmed to be higher than that of FK2 or P4D1. […] The value of the control is subtracted from the value of each antibody, a total value of the 8 types of ubiquitin chain-derived peptides is set at 100%, and the percentage of each ubiquitin chain is shown as a pie chart.
(§2) The above-described immunoprecipitate was electrophoresed on 4%-12% NuPAGE Bis-Tris gels (Thermo Fisher Scientific) in MES buffer (Thermo Fisher Scientific) for about 2 cm, and was then stained with CBB (Bio-Safe Commassie, Bio-Rad). After the gel was washed with Milli-Q water, a gel of 62 kDa or more was cut out using a molecular weight marker as an indicator, and the gel was cut into 1 mm squares. The gel pieces were collected in an Eppendorf tube and were washed with 50 mM ammonium bicarbonate and 30% acetonitrile (ACN) for 2 hours, and then with 50 mM ammonium bicarbonate and 50% ACN for 1 hour, and were dehydrated in 100% ACN for 15 minutes. Subsequently, a trypsin solution (20 ng/ml Trypsin Gold, Promega, 50 mM ammonium bicarbonate, and 5% ACN) was added to the resultant, which was then digested at 37° C. overnight.

[3] = target: T3, K29 (human); assay: as above
T3 construct: quantified through the peptide AK[di-GlyGly]IQDK; also called K29 chain; K29-linked ubiquitin chain
Excerpt: as §1, §2

[4] = target: T4, K27 (human); assay: as above
T4 construct: also called K27 chain; K27-linked ubiquitin chain
Excerpt: as §1, §2

[5] = target: T5, M1 (human); assay: as above
T5 construct: quantified through the peptide GGM[Oxid]QIFVK; also called M1 chain; M1-linked ubiquitin chain
Excerpt: as §1, §2

[6] = target: T6, K48 (human); assay: as above
T6 construct: quantified through the peptide LIFAGK[di-GlyGly]QLEDGR; also called K48 chain; K48-linked ubiquitin chain
Excerpt: as §1, §2

[7] = target: T7, K11 (human); assay: as above
T7 construct: also called K11 chain; K11-linked ubiquitin chain
Excerpt: as §1, §2

[8] = target: T8, K63 (human); assay: as above
T8 construct: also called K63 chain; K63-linked ubiquitin chain
Excerpt: as §1, §2

[9] = target: T9, K33 (human); assay: as above
T9 construct: also called K33 chain; K33-linked ubiquitin chain
Excerpt: as §1, §2

Kd [1]: 1.2 nM
B1: anti-ubiquitin monobody clone E, Monobody-Nus tag-His6 recombinant protein (designed binder)
chain: LEVVEASPTSIQISWDANIYSVGQGEYVRYYRITYGETGGNSPVQEFTVPGSKSTATISGLKPGVDYTITVYAVTEYSYMYWGWPPISINYRTHHHHHH
notes: Monobody, Nus tag and His6 fused from the N-terminus; also called Ub monobody; not shown: Nus tag for solubilization

percentage of this chain among the 8 ubiquitin chain-derived peptides in the immunoprecipitate (control subtracted) [2]: 4%
percentage of this chain among the 8 ubiquitin chain-derived peptides in the immunoprecipitate (control subtracted) [3]: 10%
percentage of this chain among the 8 ubiquitin chain-derived peptides in the immunoprecipitate (control subtracted) [4]: 0%
percentage of this chain among the 8 ubiquitin chain-derived peptides in the immunoprecipitate (control subtracted) [5]: 0%
percentage of this chain among the 8 ubiquitin chain-derived peptides in the immunoprecipitate (control subtracted) [6]: 61%
percentage of this chain among the 8 ubiquitin chain-derived peptides in the immunoprecipitate (control subtracted) [7]: 6%
percentage of this chain among the 8 ubiquitin chain-derived peptides in the immunoprecipitate (control subtracted) [8]: 19%
percentage of this chain among the 8 ubiquitin chain-derived peptides in the immunoprecipitate (control subtracted) [9]: 0%
B2: Halo tag-fused anti-ubiquitin monobody (His6-Halo tag-TEV recognition sequence-GGGS-monobody, clone C) (designed binder)
chain: HHHHHHGGGSLEVVEASPTSIQISWDAASFGFTHMDKVRYYRITYGETGGNSPVQEFTVPGSKSTATISGLKPGVDYTITVYAVTWYAYSYWGWPPISINYRT
notes: Immobilized on Magne HaloTag Beads; also called Ub monobody; Halo tag-fused monobody; not shown: Halo tag

Kd [1]: 1.1 nM
B3: anti-ubiquitin monobody clone A, Monobody-Nus tag-His6 recombinant protein (designed binder)
chain: LEVVEASPTSIQISWDAYPYYIIGETVRYYRITYGETGGNSPVQEFTVPGSKSTATISGLKPGVDYTITVYAVTYYGNAFWGWPPISINYRTHHHHHH
notes: Fibronectin type III monobody fused from the N-terminus to Nus tag and His6, made in E. coli; also called Ub monobody; not shown: Nus tag for solubilization
